The record followed here is patent publication US20240034807A1.

B1: Clone #3 VH domain (protein)
VH: KVQLQQWGAGLLKPSETLSLTCAVYGGSFSGYYWSWIRQPPGKGLEWIGEINHSGSTNYNPSLKSRVTISVDTSKNQFSLKLSSVTAADTALYYCARTYRPHSYYYYGMDVWGQGTTVTVSS
B2: Clone #5 VH domain (protein)
VH: EVQLVESGGGVVQPGRSLRLSCAASGLTFSSYAMHWVRQAPGKGLEWIGTIRYDGNTYYNPSLKSLVTISRDDSTNTLYLQMNSLRAEDTATYYCARRRYYDSSGYRGAAFDIWGQGTLVTVSS
B3: Clone #9 VH domain (protein)
VH: EVQLVESGGGVVQPGRSLRLSCAASGFTFSSYAMHWVRQAPGKGLEWVSGISYNGDHTYYADSVKGRSTVSRDNAKNTLYLQMDSLRPEDTAMYYCTRNYFFDYWGQGTLVTVSS
B4: Clone #2 VH domain (protein)
VH: EVQLVESGGGVVQPGRSLRLSCAASGFTFSSYAMHWVRQAPGKGLEWIGYIYTSGSTNYNPSLKSRVTISRDDSTNTLYLQMNSLRAEDTATYYCARTPRGRDSSGYYQSPHAFDIWGQGTLVTVSS
B5: Clone #11 VH domain (protein)
VH: EVQLVESGGGVVQPGRSLRLSCAASGFTFSSYAMHWVRQAPGKGLEWVSGITRSGGATFYAGSVKGRFTISRDDSTNTLYLQMNSLRAEDTAVYYCSRDPRRVDYWGQGTLVTVSS
B6: Clone #12 VH domain (protein)
VH: EVQLVETGGDLAQPGESLRLSCVASGFTFSSSWMTWIRQAPGKGLEWVSSLSGRSEKTFYADSVKGRFTVSRDNAKNTLYLQMDSLRPEDTATYYCASGWALVWGQGTLVTVSS
B7: Clone #4 VH domain (protein)
VH: EVQLVESGGGVVQPGRSLRLSCAASGFTFSSYAMHWVRQAPGKGLEWVSSISGNSLYKYYADSVKGRFTISRDDSTNTLYLQMNSLRAEDTATYYCTRHWAVGNWGQGTLVTVSS
B8: Clone #10 VH domain (protein)
VH: EVQLVESGGGVVQPGRSLRLSCAASGFTFSSYAMHWVRQAPGKGLEWIGSIRHDGNTYYNPSLKSRVTVSRDNAKNTLYLQMDSLRAEDTAMYYCAKYGCSSISCSFDYWGQGTLVTVSS
B9: Clone #8 VH domain (protein)
VH: B8 VH with T68S
B10: Clone #7 VH domain (protein)
VH: B8 VH with S50T, H53Y, R66L, V69I, N73D, A74S, K75T, D83N, M92L, I103T
B11: Clone #6 VH domain (protein)
VH: QVQLQQWGAGLLKPSETLSLTCAVYGGSFSGYYWSWIRQPPGKGLEWIGEINHSGSTNYNPSLKSRVTISVDTSKNQFSLKLSSVTAADTATYYCARSYRTVTYYKAYFQHWGQGTLVTVSS
B12: Clone #1 VH domain (protein)
VH: EVQLVESGGGVVQPGRSLRLSCAASGFTFSSYAMHWVRQAPGKALEWIGSISYSGSTYYNPSLKSRVTVSRDNAKNTLYLQMDSLRAEDTAMYYCAKYYCSGGTCYYFDYWGQGTLVTVSS

Positions count from the first letter of the chain named.

The target in the assay is human mesothelin polypeptide (human) (UniProt Q13421). In words: ELISA and SPR (Blitz) on a human mesothelin polypeptide. A general note: In an ELISA, binding on a coated surface is turned into a signal by an enzyme label.
Broadly, the EC50 is the concentration giving half of the maximal effect. High values mean weaker potency, low ones greater potency. B1 showed an EC50 of 38 nM.

The molecule B2 yielded an EC50 of 298 nM.

Turning to B3, the 50% effective concentration (EC50) worked out at 944 nM. This EC50 is about 3.2-fold higher than that of the molecule before.

On to B4, for which the EC50 worked out at 1.6 nM.

With B5, the EC50 was 98 nM. Compared with the last molecule, the EC50 is about 61-fold higher.

On to B6, for which the EC50 came to 1.3 nM.

With B7, the EC50 worked out at 1.7 nM.

B8 gave an EC50 of 107 nM. This EC50 lies about 63-fold higher than the previous one.

In turn, B9 registered a 50% effective concentration (EC50) of 6.5 nM. This EC50 lies about 16-fold lower than the previous one.

The molecule B10 had an EC50 of 16.4 nM.

In turn, B11 had an EC50 of 1000 nM.

Turning to B12, the EC50 is 1000 nM.
